# B1: CK-14 with one or two dithioate linkages (XBY1, XBY2) (dsDNA)
# DNA 1: CCAGGAGATTCCAC
# DNA 2: GTGGAATCTCCTGG
# modifications: 1 or 2 phosphorodithioates, positions not given
# Biological target: NF-κB p65 (RelA) homodimer (UniProt Q04206 Q04206:1-551)
# Assay: competition; inhibition/binding similar to unsubstituted aptamer; 32P IgκB competition
# Details: protein: NAME; chain copies: 2 (stated)
# Description: As the substitutions of dithiophosphate were increased, binding by the [S₂]-ODN oligonucleotide increased dramatically. For example, in a standard competitive binding assay, ³²P IgκB promoter element ODN is incubated with recombinant p65 and varying amounts of XBY aptamer competitor. The relative binding ability of the unlabeled ODNs is determined by the concentration needed to effectively compete with the standard labeled ODN. XBY1 through 6 correspond to CK-14 aptamers with 1 through 6 dithiophosphate substitutions, respectively. The present inventors, according to an embodiment of this invention, developed an oligonucleotide containing six dithioate linkages on the two strands, termed XBY-6. Unlike the fully substituted [S]-ODN CK-14, the XBY-6 hybrid backbone [S₂]-ODN aptamers bound more tightly to p50/p50 (5-fold) than to the p65 homodimer.
# NF-κB p65 (RelA) homodimer, sequence (Q04206 whole entry, one chain of several): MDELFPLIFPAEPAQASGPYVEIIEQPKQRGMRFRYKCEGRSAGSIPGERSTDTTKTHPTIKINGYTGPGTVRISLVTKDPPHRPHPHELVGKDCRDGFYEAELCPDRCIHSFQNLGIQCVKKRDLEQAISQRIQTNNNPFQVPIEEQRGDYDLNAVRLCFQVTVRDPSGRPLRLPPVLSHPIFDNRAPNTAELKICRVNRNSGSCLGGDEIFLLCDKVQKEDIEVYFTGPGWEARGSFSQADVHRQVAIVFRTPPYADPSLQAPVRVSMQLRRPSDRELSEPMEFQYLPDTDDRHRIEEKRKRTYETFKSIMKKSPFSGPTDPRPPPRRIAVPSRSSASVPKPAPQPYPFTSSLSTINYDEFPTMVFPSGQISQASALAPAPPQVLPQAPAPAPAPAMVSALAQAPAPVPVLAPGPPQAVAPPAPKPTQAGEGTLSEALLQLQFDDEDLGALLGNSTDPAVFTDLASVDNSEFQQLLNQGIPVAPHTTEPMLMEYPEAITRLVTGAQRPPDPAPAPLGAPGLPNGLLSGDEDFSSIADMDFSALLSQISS
binder,measurement,value
B1,binding signal,~1 fold vs unsubstituted

# — patent US20050118611, “Thioaptamers enable discovery of physiological pathways and new therapeutic strategies” (Board Of Regents, The University of Texas System, published 2005)
